Source: PMC3406032, “Tristetraprolin Inhibits Poly(A)-Tail Synthesis in Nuclear mRNA that Contains AU-Rich Elements by Interacting with Poly(A)-Binding Protein Nuclear 1” (PLoS ONE, 2012)

T1: MBP-PABPN1-HA-(His)6 (mouse)
T1 sequence (Q8CCS6 whole entry, looked up): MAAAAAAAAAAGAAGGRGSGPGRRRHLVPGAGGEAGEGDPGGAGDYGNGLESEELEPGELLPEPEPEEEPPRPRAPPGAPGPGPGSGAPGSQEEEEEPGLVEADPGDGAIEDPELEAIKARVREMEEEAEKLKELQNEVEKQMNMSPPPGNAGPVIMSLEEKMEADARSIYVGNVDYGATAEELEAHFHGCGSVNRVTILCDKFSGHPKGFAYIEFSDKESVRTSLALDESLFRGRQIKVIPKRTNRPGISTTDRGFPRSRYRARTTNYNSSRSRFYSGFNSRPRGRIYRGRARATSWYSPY


Experiments:
[1] = molecular target: T1, MBP-PABPN1-HA-(His)6 (mouse); assay: pull-down; MBP-PABPN1 immobilised on amylose resin and incubated with (His)6-PAP-myc and GST-TTP together; blots with anti-GST and anti-myc quantitated; oligo(A)12 added to some samples
hexahistidine-PAP-myc = molecular target: T2, hexahistidine-PAP-myc (UniProt Q61183-1 1-739); assay: co-IP; 0.5 µg bacterially expressed GST-TTP construct and 0.5 µg (His)6-PAP-myc with anti-myc agarose in 10 mM Tris pH 7.0, 0.15 M NaCl, 1 mM MgCl2, 0.7 mM ZnCl2, 0.1% NP-40, 4°C overnight; blots with anti-myc and anti-GST; details: both partners purified
T2 construct: poly(A) polymerase (PAP), NM_011112, in a pQE expression vector; also called (His)6-PAP-myc; poly(A) polymerase; source: bacterially expressed (E. coli STBL2 or Rosetta(DE3)pLacI), purified; not shown: His6, N-terminal, kept; myc, C-terminal, kept
T2 sequence (Q61183 whole entry): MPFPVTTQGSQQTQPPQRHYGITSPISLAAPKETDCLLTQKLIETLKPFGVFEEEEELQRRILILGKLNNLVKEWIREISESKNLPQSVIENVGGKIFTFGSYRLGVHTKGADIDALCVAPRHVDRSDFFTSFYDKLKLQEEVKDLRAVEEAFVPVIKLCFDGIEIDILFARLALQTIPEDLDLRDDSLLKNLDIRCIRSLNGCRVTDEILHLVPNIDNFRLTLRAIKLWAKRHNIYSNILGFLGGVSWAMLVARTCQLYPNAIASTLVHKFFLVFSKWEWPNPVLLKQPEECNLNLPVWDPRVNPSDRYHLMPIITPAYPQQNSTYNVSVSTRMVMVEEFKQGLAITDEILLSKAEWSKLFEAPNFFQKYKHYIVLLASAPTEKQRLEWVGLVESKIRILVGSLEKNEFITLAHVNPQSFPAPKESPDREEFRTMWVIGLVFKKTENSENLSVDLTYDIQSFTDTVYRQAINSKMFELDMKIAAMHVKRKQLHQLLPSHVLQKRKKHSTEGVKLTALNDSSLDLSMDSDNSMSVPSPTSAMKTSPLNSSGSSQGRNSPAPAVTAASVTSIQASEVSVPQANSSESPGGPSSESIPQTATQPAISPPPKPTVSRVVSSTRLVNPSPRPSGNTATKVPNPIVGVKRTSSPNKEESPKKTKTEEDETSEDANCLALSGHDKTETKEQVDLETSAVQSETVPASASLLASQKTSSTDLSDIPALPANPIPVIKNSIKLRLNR

(His)6-PABPN1 (mouse) = (His)6-PABPN1 (mouse) (UniProt O35445)

Sequence of hexahistidine-PAP-myc (from UniProt Q61183-1 1-739) (enzyme) (Q61183 whole entry): as above

Molecule | binding result (hexahistidine-PAP-myc) | other results
hexahistidine-PAP-myc (from UniProt Q61183-1 1-739) (enzyme) |  | fold change of PAP pulled down with GST-TTP present, against PAP alone [1]: 4 fold
N-terminally glutathione S-transferase-tagged wild-type TTP (natural protein, mouse, UniProt P22893 2-319, looked up, also called WT GST-TTP; GST-TTP; source: E. coli STBL2 or Rosetta(DE3)pLacI, purified (glutathione-agarose); not shown: GST, N-terminal, kept) DLSAIYESLQSMSHDLSSDHGGTESLGGLWNINSDSIPSGVTSRLTGRSTSLVEGRSCGWVPPPPGFAPLAPRPGPELSPSPTSPTATPTTSSRYKTELCRTYSESGRCRYGAKCQFAHGLGELRQANRHPKYKTELCHKFYLQGRCPYGSRCHFIHNPTEDLALPGQPHVLRQSISFSGLPSGRRSSPPPPGFSGPSLSSCSFSPSSSPPPPGDLPLSPSAFSAAPGTPVTRRDPNQACCPSCRRSTTPSTIWGPLGGLARSPSAHSLGSDPDDYASSGSSLGGSDSPVFEAGVFGPPQTPAPPRRLPIFNRISVSE | binds | amount of TTP pulled down with (His)6-PAP-myc present, against TTP alone [1]: 80%; in vitro polyadenylation of TNFα-ARE A20 RNA by (His)6-PAP-myc with (His)6-PABPN1: reduction of the processive addition of adenosines by GST-TTP at 2 and 5 min ((His)6-PABPN1 (mouse)): 45%
GST-TTP@2-319(F118N) (natural protein, mouse, UniProt P22893 2-319, looked up, source: E. coli STBL2 or Rosetta(DE3)pLacI, purified (glutathione-agarose); not shown: GST, N-terminal, kept) DLSAIYESLQSMSHDLSSDHGGTESLGGLWNINSDSIPSGVTSRLTGRSTSLVEGRSCGWVPPPPGFAPLAPRPGPELSPSPTSPTATPTTSSRYKTELCRTYSESGRCRYGAKCQNAHGLGELRQANRHPKYKTELCHKFYLQGRCPYGSRCHFIHNPTEDLALPGQPHVLRQSISFSGLPSGRRSSPPPPGFSGPSLSSCSFSPSSSPPPPGDLPLSPSAFSAAPGTPVTRRDPNQACCPSCRRSTTPSTIWGPLGGLARSPSAHSLGSDPDDYASSGSSLGGSDSPVFEAGVFGPPQTPAPPRRLPIFNRISVSE | binds | 
GST-TTP@2-186 (domain or fragment, mouse, UniProt P22893 2-186, looked up, source: E. coli STBL2 or Rosetta(DE3)pLacI, purified (glutathione-agarose); not shown: GST, N-terminal, kept) DLSAIYESLQSMSHDLSSDHGGTESLGGLWNINSDSIPSGVTSRLTGRSTSLVEGRSCGWVPPPPGFAPLAPRPGPELSPSPTSPTATPTTSSRYKTELCRTYSESGRCRYGAKCQFAHGLGELRQANRHPKYKTELCHKFYLQGRCPYGSRCHFIHNPTEDLALPGQPHVLRQSISFSGLPSGR | binds | 
GST-TTP@95-158 (domain or fragment, mouse, UniProt P22893 95-158, looked up, also called TZF construct; TZF domain; source: E. coli STBL2 or Rosetta(DE3)pLacI, purified (glutathione-agarose); not shown: GST, N-terminal, kept) RYKTELCRTYSESGRCRYGAKCQFAHGLGELRQANRHPKYKTELCHKFYLQGRCPYGSRCHFIH | binds | 
GST-TTP@95-158(F118N) (domain or fragment, mouse, UniProt P22893 95-158, looked up, source: E. coli STBL2 or Rosetta(DE3)pLacI, purified (glutathione-agarose); not shown: GST, N-terminal, kept) RYKTELCRTYSESGRCRYGAKCQNAHGLGELRQANRHPKYKTELCHKFYLQGRCPYGSRCHFIH | binds | 
GST-TTPΔ95–158 (natural protein, mouse, UniProt P22893 2-319, looked up, also called TZF domain-deleted TTP mutant; source: E. coli STBL2 or Rosetta(DE3)pLacI, purified (glutathione-agarose); not shown: GST, N-terminal, kept) DLSAIYESLQSMSHDLSSDHGGTESLGGLWNINSDSIPSGVTSRLTGRSTSLVEGRSCGWVPPPPGFAPLAPRPGPELSPSPTSPTATPTTSSNPTEDLALPGQPHVLRQSISFSGLPSGRRSSPPPPGFSGPSLSSCSFSPSSSPPPPGDLPLSPSAFSAAPGTPVTRRDPNQACCPSCRRSTTPSTIWGPLGGLARSPSAHSLGSDPDDYASSGSSLGGSDSPVFEAGVFGPPQTPAPPRRLPIFNRISVSE | binds | 
